Measurements as given in the supplement of paper PMC10724198.
± gives the standard deviation of the averaged measurements.

Key:
[1] = system: Saccharomyces cerevisiae; test: protein stability index of tFT-peptide fusion in wild type (PSI (0-1 scale)); higher = more stable (slower turnover); settings: genetic background: wild type
[2] = system: Saccharomyces cerevisiae; test: protein stability index of tFT-peptide fusion in deletion strain of DOA10 (PSI (0-1 scale)); higher = more stable (slower turnover)
Description: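 MPS profiling in S. cerevisiae of two library types built from selected 12-aa C-degron peptides (IN1, IN2, LN1, LN3, VN2, R1-R5, W1-W3, Atg1 and Rpa12 C-termini): saturation mutagenesis libraries and C-terminal +1 capping libraries (13 aa). Each peptide is fused to the C-terminus of a sfGFP-mCherry timer, after a GGGS linker. Cells are FACS-sorted into 8 mCherry/sfGFP bins and sequenced. PSI runs from 0 (unstable) to 1 (stable), measured once in wild type and in the das1Δ or doa10Δ background.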

[3] = system: Saccharomyces cerevisiae; test: protein stability index of tFT-peptide fusion (C-terminal peptide) (PSI (0-1 scale)); higher = more stable (slower turnover); settings: genetic background: wild type; temperature: 30 C
[4] = system: Saccharomyces cerevisiae; test: as above
Description: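 MPS profiling in S. cerevisiae of the tFT-X12 degron library: putative degron peptides plus stable controls, 12 aa, fused to the C-terminus of a sfGFP-mCherry timer. Cells are FACS-sorted into 8 mCherry/sfGFP bins and deep-sequenced. PSI runs from 0 (unstable) to 1 (stable). Backgrounds are wild type, das1Δ and doa10Δ at 30 °C, and wild type, das1Δ, cdc34-1 and cdc53-1 at 37 °C; 2-3 technical replicates each.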
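Throughout, for protein stability index of tFT-peptide fusion (C-terminal peptide): PSI is a weighted mean of sequencing reads over stability bins, variants kept only with over 10 reads, mCherry proximal and sfGFP distal, peptide attached via GGGS linker.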
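Throughout, for protein stability index of tFT-peptide fusion in deletion strain of DOA10: PSI per variant is the weighted mean of its sequencing read distribution over the sorted stability bins, counting only variants with over 10 reads summed across bins.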
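Throughout, for protein stability index of tFT-peptide fusion in wild type: PSI derived as read-weighted mean over the 8 sorting bins, only variants exceeding 10 total reads kept, mCherry placed adjacent to the peptide and sfGFP distal.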

Sequence	protein stability index [1]	protein stability index [2]	further results
GLYMCSVGCWFR	0.264	0.629	protein stability index [3]: 0.408 ± 0.085; protein stability index ([4]; genetic background: cdc34-1, temperature: 37 C): 0.104 ± 0.0033; protein stability index ([4]; genetic background: cdc53-1, temperature: 37 C): 0.0717 ± 0.0099; protein stability index ([4]; genetic background: das1 deletion, temperature: 30 C): 0.223 ± 0.033; protein stability index ([4]; genetic background: das1 deletion, temperature: 37 C): 0.2809 ± 0.001; protein stability index ([4]; genetic background: doa10 deletion, temperature: 30 C): 0.586 ± 0.011; protein stability index ([4]; genetic background: wild type, temperature: 30 C): 0.231 ± 0.018; protein stability index ([4]; genetic background: wild type, temperature: 37 C): 0.252 ± 0.0062
RVTRLDAIYFRIF	0.0593	0.0962	
RVTRLDAIYFRIQ	0.218	0.256	
RVTRLDAIYFRK	0.673	0.711	
RVTRLDAIYFRS	0.641	0.72	
RVTRLDAIYFRT	0.546	0.703	
RVTRLDAIYFYI	0.425	0.449	
RVTRLDAIYRRI	0.684	0.721	
RVTRLSAIYFRI	0.22	0.458	
RVTRLVAIYFRI	0.19	0.394	
RVTRLWAIYFRI	0.167	0.377	
RVTRRDAIYFRI	0.485	0.673	
RVTVLDAIYFRI	0.516	0.651	
RWTRLDAIYFRI	0.337	0.528	
SLVSLPILLFFR	0.0746	0.619	
